Data taken from CN114478789A (ANHUI ANKE BIOLOGICAL ENG GROUP CO LTD, dated 2022).

T1: 鼠源OX40 (mouse, UniProt P47741 20-211, limits assumed)
T1 construct: also called 鼠源OX40抗原
T1 sequence (looked up): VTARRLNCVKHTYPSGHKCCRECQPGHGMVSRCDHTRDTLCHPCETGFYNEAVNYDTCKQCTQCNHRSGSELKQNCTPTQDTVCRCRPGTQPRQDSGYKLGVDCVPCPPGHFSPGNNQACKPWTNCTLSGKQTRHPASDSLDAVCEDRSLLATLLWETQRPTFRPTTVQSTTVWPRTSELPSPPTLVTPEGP

T2: rhOX40-Avi-His (human, UniProt P43489 29-214, limits assumed)
T2 construct: also called OX40抗原; 人源OX40
T2 sequence (looked up): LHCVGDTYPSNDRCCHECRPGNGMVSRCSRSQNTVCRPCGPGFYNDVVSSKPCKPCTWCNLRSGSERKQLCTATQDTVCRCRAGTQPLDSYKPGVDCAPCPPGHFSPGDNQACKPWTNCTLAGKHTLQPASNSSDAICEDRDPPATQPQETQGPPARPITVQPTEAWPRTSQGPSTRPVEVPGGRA


How the values were obtained:
[1] = biological target: T1, 鼠源OX40; test: ELISA, mouse OX40 coated
[2] = biological target: T2, rhOX40-Avi-His; test: ELISA, human OX40 coated

binding result [1] | binding result [2] | Binder
no binding | binds | L52-2D7H232 (bispecific antibody, human IgG1, kappa, Symmetric bispecific: two tandem anti-OX40 nanobodies D7 joined to the heavy chain of the anti-PD-L1 IgG1 L52H232; also called 抗PD-L1与OX40双特异性抗体; 优选抗体L52-2D7H232) light: DIQMTQSPSTLSASVGDRVTITCQSSQNVYSNNRLSWYQQKPGKAPKLLIYWTSFLASGVPSRFSGSGSGTEFTLTISSLQPDDFATYYCAGGYSGNLYTFGQGTKLEIKRTVAAPSVFIFPPSDEQLKSGTASVVCLLNNFYPREAKVQWKVDNALQSGNSQESVTEQDSKDSTYSLSSTLTLSKADYEKHKVYACEVTHQGLSSPVTKSFNRGEC heavy: not shown
no binding | binds | L52H232-2D7 (bispecific antibody, human IgG1, kappa, N297A, to be rechecked; also called 抗PD-L1与OX40双特异性抗体) light: DIQMTQSPSTLSASVGDRVTITCQSSQNVYSNNRLSWYQQKPGKAPKLLIYWTSFLASGVPSRFSGSGSGTEFTLTISSLQPDDFATYYCAGGYSGNLYTFGQGTKLEIKRTVAAPSVFIFPPSDEQLKSGTASVVCLLNNFYPREAKVQWKVDNALQSGNSQESVTEQDSKDSTYSLSSTLTLSKADYEKHKVYACEVTHQGLSSPVTKSFNRGEC heavy: not shown
no binding |  | L52-D7H232 (bispecific antibody, human IgG1, kappa, N297A, Symmetric bispecific: anti-OX40 nanobody D7 joined to the heavy chain of the anti-PD-L1 IgG1 L52H232; also called 抗PD-L1与OX40双特异性抗体; 优选抗体L52-D7H232) light: DIQMTQSPSTLSASVGDRVTITCQSSQNVYSNNRLSWYQQKPGKAPKLLIYWTSFLASGVPSRFSGSGSGTEFTLTISSLQPDDFATYYCAGGYSGNLYTFGQGTKLEIKRTVAAPSVFIFPPSDEQLKSGTASVVCLLNNFYPREAKVQWKVDNALQSGNSQESVTEQDSKDSTYSLSSTLTLSKADYEKHKVYACEVTHQGLSSPVTKSFNRGEC heavy: DVQLVESGGGLVQPGGSLRLSCAASGFTASIYGMRWFRQAPGKGRELVAGIVDAGSATYYADSVKGRFTISRDNAKNTVYLQMNSLRAEDTAVYYCARGNHEGEVGLDYWGQGTQVTVSASEFGGGGSGGGGSGGGGSLEQVQLVESGGGLVQPGGSLRLSCTVSGIDLSSYDMTWVRQAPGKGLEYIGYISYVSRTYYADSVKGRFTISKDTSKNTVYLQMNSLRAEDTAVYYCARDRPDGAATNLWGQGTLVTVSSASTKGPSVFPLAPSSKSTSGGTAALGCLVKDYFPEPVTVSWNSGALTSGVHTFPAVLQSSGLYSLSSVVTVPSSSLGTQTYICNVNHKPSNTKVDKKVEPKSCDKTHTCPPCPAPEDEGGPSVFLFPPKPKDTLMISRTPEVTCVVVDVSHEDPEVKFNWYVDGVEVHNAKTKPREEQYASTYRVVSVLTVLHQDWLNGKEYKCKVSNKALPAPIEKTISKAKGQPREPQVYTLPPCRDELTKNQVSLWCLVKGFYPSDIAVEWESNGQPENNYKTTPPVLDSDGSFFLYSKLTVDKSRWQQGNVFSCSVMHEALHNHYTQKSLSLSP
no binding | binds | L52H232-D7 (bispecific antibody, human IgG1, kappa, N297A, Symmetric bispecific: anti-OX40 nanobody D7 joined to the heavy chain of the anti-PD-L1 IgG1 L52H232; also called 抗PD-L1与OX40双特异性抗体) light: DIQMTQSPSTLSASVGDRVTITCQSSQNVYSNNRLSWYQQKPGKAPKLLIYWTSFLASGVPSRFSGSGSGTEFTLTISSLQPDDFATYYCAGGYSGNLYTFGQGTKLEIKRTVAAPSVFIFPPSDEQLKSGTASVVCLLNNFYPREAKVQWKVDNALQSGNSQESVTEQDSKDSTYSLSSTLTLSKADYEKHKVYACEVTHQGLSSPVTKSFNRGEC heavy: not shown
